Here are results for 1 protein from PMC8103790.

Substrate in this series: CCCCC/C=C\C/C=C\C/C=C\C/C=C\CCCC(=O)O
The series is described as follows: purified protein. Conditions: heme cyclooxygenase channel.

B1: wild-type human COX-2 (huCOX-2) (Homo sapiens) (protein)
chain: ANPCCSHPCQNRGVCMSVGFDQYKCDCTRTGFYGENCSTPEFLTRIKLFLKPTPNTVHYILTHFKGFWNVVNNIPFLRNAIMSYVLTSRSHLIDSPPTYNADYGYKSWEAFSNLSYYTRALPPVPDDCPTPLGVKGKKQLPDSNEIVEKLLLRRKFIPDPQGSNMMFAFFAQHFTHQFFKTDHKRGPAFTNGLGHGVDLNHIYGETLARQRKLRLFKDGKMKYQIIDGEMYPPTVKDTQAEMIYPPQVPEHLRFAVGQEVFGLVPGLMMYATIWLREHNRVCDVLKQEHPEWGDEQLFQTSRLILIGETIKIVIEDYVQHLSGYHFKLKFDPELLFNKQFQYQNRIAAEFNTLYHWHPLLPDTFQIHDQKYNYQQFIYNNSILLEHGITQFVESFTRQIAGRVAGGRNVPPAVQKVSQASIDQSRQMKYQSFNEYRKRFMLKPYESFEELTGEKEMSAELEALYGDIDAVELYPALLVEKPRPDAIFGETMVEVGAPFSLKGLMGNVICSPAYWKPSTFGGEVGFQIINTASIQSLICNNVKGCPFTSFSVPDPELIKTVTINASSSRSGLDDINPTVLLKERSTEL
Take B1: the Km was 17.7 ± 1.9 µM.
